The values below come from paper PMC10600506, “A potent and broad‐spectrum neutralizing nanobody for SARS‐CoV‐2 viruses, including all major Omicron strains” (MedComm, 2023).

The target in this assay is SARS-CoV-2 Omicron BA.1 Spike receptor-binding domain (SARS-CoV-2 Omicron BA.1, strain, biotin on the Avi tag (for phage screening and BLI); not biotinylated for crystallisation).

B1: Nb26 (VHH)
VHH: AVQLQASGGGFVQPGGSLRLSCAASGNYYPFTFMGWFRQAPGKEREFVSAIVTDYNKNYYADSVKGRFTISRDNSKNTVYLQMNSLRAEDTATYYCAYQDHSLIVESSGHMYWGQGTQVTVSS
For B1, the binding result is reported as “binds”.

B2: Nb8 (VHH)
VHH: AVQLQASGGGFVQPGGSLRLSCAASGILGTNTWMGWFRQAPGKEREFVSAINYWTEPEYYADSVKGRFTISRDNSKNTVYLQMNSLRAEDTATYYCAQQNMDLNFDVFAWEYWGQGTQVTVSS
Consider B2, for which the binding result is “binds”.

B3: Nb24 (VHH)
VHH: AVQLQASGGGFVQPGGSLRLSCAASGHWPWTGFMGWFRQAPGKEREFVSAIVEYGWPTYYADSVKGRFTISRDNSKNTVYLQMNSLRAEDTATYYCAIAGLIAPEFEQMPVYWGQGTQVTVSS
For the molecule B3, the binding result was “binds”.
